For four molecules, PDI, Z-avg. and Encapsulation efficiency results are on record in patent publication US20240189408A1, “COMPOSITIONS AND METHODS FOR REDUCING METHANE EMISSIONS IN RUMINANT POPULATIONS” (Arkea Bio Corp., priority 2022, published 2024).

Data set [1] can be described thus: LNP size and polydispersity by DLS (Malvern Panalytical). Type of data set: physicochemical. The note with it: mRNA LNPs of Table 18; for PDI: LNP polydispersity; for Z-avg.: LNP size. The protocol:
(§1) To prepare lipid nanoparticles (LNPs), the mRNA stocks were thawed on ice. Nucleic acid concentrations were validated by absorbance at 260 nm using a NanoDrop. The mRNAs were then diluted to a final concentration of 0.35 mg/mL mRNA in Precision Nanosystem's dilution buffer. 10 mL of the dilute mRNAs were loaded into separate Luer lock syringes and all bubbles were removed by gentle tapping. A NanoAssemblr Ignite NxGen Cartridge was loaded into the cartridge slot of the Ignite instrument (FIG. 8A, 801) and one mRNA syringe was attached to the aqueous inlet of the cartridge. 3.3 mL of Genvoy-ILM reagent was loaded into a separate Luer lock syringes and all bubbles were removed by gentle tapping. The Genvoy-ILM syringe was then attached to the organic inlet of the cartridge. LNPs were then generated and collected into a 15 mL conical tube. The process was repeated for the remaining two mRNAs and for a buffer only LNP control (empty). Immediately after LNPs were generated, the samples were loaded into 10K dialysis cartridges, submerged into 1×DPBS (Ca^2+ and Mg^2+-free) to reduce the ethanol concentration to <0.5%. After dialysis the LNPs were recovered from the dialysis cartridges and sterile filtered at 0.2 um. Size and polydispersity (FIG. 8A, 802) were measured using a Malvern Panalytical DLS by diluting 40 uL of LNPs into 360 uL of 1×DPBS. […] Encapsulation efficiency was measured using a RiboGreen assay following Precision Nanosystems recommended protocol using a BioTek Synergy H1 Plate Reader. The resultant encapsulation efficiencies are shown in Table 14, with an average of ˜85%.
(§2) To prepare lipid nanoparticles (LNPs), the mRNA stocks were thawed on ice. Nucleic acid concentrations were validated by absorbance at 260 nm using a NanoDrop. The mRNAs were then diluted to a final concentration of 0.35 mg/mL mRNA in Precision Nanosystem's dilution buffer. 10 mL of the dilute mRNAs were loaded into separate Luer lock syringes and all bubbles were removed by gentle tapping. A NanoAssemblr Ignite NxGen Cartridge was loaded into the cartridge slot of the Ignite instrument and one mRNA syringe was attached to the aqueous inlet of the cartridge. 3.3 mL of Genvoy-ILM reagent was loaded into a separate Luer lock syringes and all bubbles were removed by gentle tapping. The Genvoy-LM syringe was then attached to the organic inlet of the cartridge. LNPs were then generated and collected into a 15 mL conical tube. The process was repeated for the remaining mRNAs and for a buffer only LNP control (empty). Immediately after LNPs were generated, the samples were loaded into 10K dialysis cartridges, submerged into Ix DPBS (Ca^2+ and Mg^2+-free) to reduce the ethanol concentration to <0.5%. After dialysis the LNPs were recovered from the dialysis cartridges and sterile filtered at 0.2 um. Size and polydispersity (FIG. 12 and FIG. 13) were measured using a Malvern Panalytical DLS by diluting 40 uL of LNPs into 360 uL of 1×DPBS. […] Encapsulation efficiency was measured using a RiboGreen assay following Precision Nanosystems recommended protocol using a BioTek Synergy H1 Plate Reader. The resultant encapsulation efficiencies are shown in Table 18, with an average of ˜60%.
(§3) To prepare lipid nanoparticles (LNPs), the mRNA stocks are thawed on ice. Nucleic acid concentrations are validated by absorbance at 260 nm using a NanoDrop. The mRNAs are then diluted to a final concentration of 0.35 mg/mL mRNA in Precision Nanosystem's dilution buffer. 10 mL of the dilute mRNAs are loaded into separate Luer lock syringes and all bubbles are removed by gentle tapping. A NanoAssemblr Ignite NxGen Cartridge is loaded into the cartridge slot of the Ignite instrument and one mRNA syringe is attached to the aqueous inlet of the cartridge. 3.3 mL of Genvoy-ILM reagent is loaded into a separate Luer lock syringes and all bubbles are removed by gentle tapping. The Genvoy-ILM syringe is then attached to the organic inlet of the cartridge. […]

Data set [2] is described as follows: LNP encapsulation efficiency, RiboGreen assay. The note with it: mRNA LNPs of Table 18. It is filed as physicochemical. The protocol: as §1, §2, §3

B1: ARK005: mRNA: SP + WP_011033493.1 (Methanosarcina mazei) + TM/C; SEQ ID NO: 16680 (nucleic acid)
chain: ATGTTCGTGTTCCTCGTGCTCCTGCCCCTCGTCTCCAGCCAGTGCGTGTACCTCATGACGGTGGTGCTCGGACACCCATTCCCGCTGACACCCTGGTACATCTGGCTGGGCTTCATCGCAGGACTGATCGCCATCGTCATGGTCACCATAATGCTCTGTTGCATGACCTCCTGCTGTAGCTGCCTGAAAGGCTGTTGCAGCTGCGGGAGCTGCTGCAAATTCGACGAAGACGATAGCGAACCTGTGCTCAAAGGGGTGAAGTTGCATTACACATAGTGA
modifications: listed as DNA
In the case of B1, in data set [1], the PDI is listed as 0.064 and the Z-avg. came to 78.82 nm·days. The Encapsulation efficiency in data set [2] turned out to be 56%.

B2: ARK004: mRNA: SP + WP_016359091.1 (Methanobrevibacter sp. AbM4) + TM/C; SEQ ID NO: 16679 (nucleic acid)
chain: ATGTTCGTGTTCCTCGTGCTCCTGCCCCTCGTCTCCAGCCAGTGCGTGTACCTGATGATAATCCCAATCAACGGGAGTGCACTCCACATCTTCCCCCTCCCGCCCTGGTACATCTGGCTGGGCTTCATCGCAGGACTGATCGCCATCGTCATGGTCACCATAATGCTCTGTTGCATGACCTCCTGCTGTAGCTGCCTGAAAGGCTGTTGCAGCTGCGGGAGCTGCTGCAAATTCGACGAAGACGATAGCGAACCTGTGCTCAAAGGGGTGAAGTTGCATTACACATAGTGA
modifications: listed as DNA
As for B2, in data set [1], the PDI stood at 0.108 and the Z-avg. came to 78.82 nm·days. Besides, the Encapsulation efficiency in data set [2] is recorded as 51%.

B3: ARK003: mRNA: SP + WP_019264904.1 (Methanobrevibacter smithii) + TM/C; SEQ ID NO: 16678 (nucleic acid)
chain: ATGTTCGTGTTCCTCGTGCTCCTGCCCCTCGTCTCCAGCCAGTGCGTGTACCTCATGACCATACCACTGAACGGCACCCCACTCCACGCCTTCCCACTGCCACCCTGGTACATCTGGCTGGGCTTCATCGCAGGACTGATCGCCATCGTCATGGTCACCATAATGCTCTGTTGCATGACCTCCTGCTGTAGCTGCCTGAAAGGCTGTTGCAGCTGCGGGAGCTGCTGCAAATTCGACGAAGACGATAGCGAACCTGTGCTCAAAGGGGTGAAGTTGCATTACACATAGTGA
modifications: listed as DNA
Take B3: in data set [1], the PDI worked out at 0.118 and the Z-avg. was found to be 78.82 nm·days. The Encapsulation efficiency in data set [2] is on record as 40%.

B4: ARK002: mRNA: SP + WP_012956721.1 (Methanobrevibacter ruminantium) + TM/C; SEQ ID NO: 16677 (nucleic acid)
chain: ATGTTCGTGTTCCTCGTGCTCCTGCCCCTCGTCTCCAGCCAGTGCGTGTACCTCATGACACTCCCCCTGGACGGACTCGGGCACCCCTTCCCCCTGCCACCCTGGTACATCTGGCTGGGCTTCATCGCAGGACTGATCGCCATCGTCATGGTCACCATAATGCTCTGTTGCATGACCTCCTGCTGTAGCTGCCTGAAAGGCTGTTGCAGCTGCGGGAGCTGCTGCAAATTCGACGAAGACGATAGCGAACCTGTGCTCAAAGGGGTGAAGTTGCATTACACATAGTGA
modifications: listed as DNA
Consider B4, for which, in data set [1], the PDI was 0.108 and the Z-avg. turned out to be 78.82 nm·days. Besides, the Encapsulation efficiency in data set [2] turned out to be 51%.
